Patent JP2013532970A, “追加のジスルフィド結合を含有するヒトインスリン” (ノヴォ ノルディスク アー/エス, priority 2010, dated 2011)

Assay: Thioflavin T (ThT) fibrillation assay
Type: physicochemical
Conditions: 7 mM sodium phosphate pH 7.4, 1 μM ThT, 37℃, orbital shaking 960 rpm

Substance	Fibrillation within the 45-hour experiment (ThT fluorescence) (45 h)	ThT fibrillation lag time
A10C, B4C, desB30ヒトインスリン [実施例4]	細線維化しなかった	
ヒトインスリン: Human insulin hormone (prior art), 21-residue A chain and 30-residue B chain; used as the reference		< 2 時間
